The source of these data is paper PMC4868757, “PDIP46 (DNA polymerase δ interacting protein 46) is an activating factor for human DNA polymerase δ” (Oncotarget, 2016).

One test deals with T1, Human PCNA, recombinant (human, UniProt P12004 1-261).
T1 construct: PCNA, human; source: E. coli, purified
In words: pull-down; GST fusion protein incubated with the test protein in 50 mM Tris-HCl pH 7.8, 1 mM EDTA, 150 mM NaCl, 0.1% NP-40, 0.2 mM PMSF, 1 h at 4°C; captured on glutathione beads, washed 8 times; western blot of the test protein. As to conditions: both partners purified. Background: A western blot detects proteins with antibodies after separation by electrophoresis.

Test [1] addresses T2, His-tagged p50 subunit of Pol δ (human, UniProt P49005 1-469).
T2 construct: p50 subunit of human DNA polymerase δ; Expressed in the PET33b vector; also called his-p50; source: E. coli BL21DE3 (pLysS), purified (Ni-NTA agarose)
The description is as above. Conditions: both partners purified.

For test [2], the target named is T3, Recombinant human DNA polymerase δ holoenzyme (Pol δ4), heterotetramer of p125, p50, p68 and p12 (human, UniProt P28340 1-1107; P49005 1-469; Q15054 1-466; Q9HCU8 1-107).
T3 construct: p125, catalytic subunit of human Pol δ; p50 subunit of human Pol δ; p68 subunit of human Pol δ; p12 subunit of human Pol δ; also called Pol δ heterotetramer; source: insect cells, purified to near homogeneity; copies: + + +
T3 sequence (P28340 whole entry, stated change not applied, chain 1 of 4): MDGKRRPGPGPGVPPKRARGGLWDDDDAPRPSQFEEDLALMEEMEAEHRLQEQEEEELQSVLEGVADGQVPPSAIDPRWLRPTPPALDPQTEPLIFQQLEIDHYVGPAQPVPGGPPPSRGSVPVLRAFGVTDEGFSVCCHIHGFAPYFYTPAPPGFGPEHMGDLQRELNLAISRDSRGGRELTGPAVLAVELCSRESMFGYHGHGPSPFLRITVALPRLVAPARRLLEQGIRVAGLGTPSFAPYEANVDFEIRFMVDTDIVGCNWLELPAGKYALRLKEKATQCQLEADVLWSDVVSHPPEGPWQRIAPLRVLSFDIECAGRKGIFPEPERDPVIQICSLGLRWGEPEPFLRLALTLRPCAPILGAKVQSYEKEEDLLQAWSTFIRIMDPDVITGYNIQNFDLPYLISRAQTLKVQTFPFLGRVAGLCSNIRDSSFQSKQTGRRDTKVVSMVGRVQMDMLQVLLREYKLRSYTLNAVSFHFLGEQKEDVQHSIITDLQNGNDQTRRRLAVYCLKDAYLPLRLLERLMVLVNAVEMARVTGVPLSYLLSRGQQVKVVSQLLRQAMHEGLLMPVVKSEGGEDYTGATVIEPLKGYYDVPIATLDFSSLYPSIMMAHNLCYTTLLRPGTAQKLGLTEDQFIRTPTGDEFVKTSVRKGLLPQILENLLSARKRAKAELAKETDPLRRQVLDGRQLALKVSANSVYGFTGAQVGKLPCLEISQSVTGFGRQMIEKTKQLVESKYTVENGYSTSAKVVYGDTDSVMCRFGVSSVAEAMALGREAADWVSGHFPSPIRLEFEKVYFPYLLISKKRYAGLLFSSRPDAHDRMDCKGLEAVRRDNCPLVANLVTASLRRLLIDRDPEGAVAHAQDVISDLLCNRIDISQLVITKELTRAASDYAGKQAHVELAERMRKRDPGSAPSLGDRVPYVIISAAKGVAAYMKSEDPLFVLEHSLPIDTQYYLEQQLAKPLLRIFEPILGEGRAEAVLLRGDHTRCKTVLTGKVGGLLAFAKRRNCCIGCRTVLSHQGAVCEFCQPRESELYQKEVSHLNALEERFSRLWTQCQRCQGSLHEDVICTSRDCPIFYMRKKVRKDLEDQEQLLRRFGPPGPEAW
T3 sequence (P49005 whole entry, stated change not applied, chain 2 of 4): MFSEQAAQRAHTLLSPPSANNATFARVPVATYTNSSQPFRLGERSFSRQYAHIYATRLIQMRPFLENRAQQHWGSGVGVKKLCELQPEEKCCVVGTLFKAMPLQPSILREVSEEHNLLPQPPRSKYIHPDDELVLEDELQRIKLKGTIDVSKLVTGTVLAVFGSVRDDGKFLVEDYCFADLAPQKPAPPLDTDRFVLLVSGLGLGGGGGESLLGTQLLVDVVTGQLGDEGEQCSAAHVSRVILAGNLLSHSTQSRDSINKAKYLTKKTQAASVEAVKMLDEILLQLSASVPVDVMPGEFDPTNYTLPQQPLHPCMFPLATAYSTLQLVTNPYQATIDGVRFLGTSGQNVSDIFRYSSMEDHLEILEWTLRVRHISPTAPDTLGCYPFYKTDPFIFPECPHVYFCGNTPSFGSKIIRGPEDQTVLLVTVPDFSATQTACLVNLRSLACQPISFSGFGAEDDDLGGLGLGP
T3 sequence (Q15054 whole entry, stated change not applied, chain 3 of 4): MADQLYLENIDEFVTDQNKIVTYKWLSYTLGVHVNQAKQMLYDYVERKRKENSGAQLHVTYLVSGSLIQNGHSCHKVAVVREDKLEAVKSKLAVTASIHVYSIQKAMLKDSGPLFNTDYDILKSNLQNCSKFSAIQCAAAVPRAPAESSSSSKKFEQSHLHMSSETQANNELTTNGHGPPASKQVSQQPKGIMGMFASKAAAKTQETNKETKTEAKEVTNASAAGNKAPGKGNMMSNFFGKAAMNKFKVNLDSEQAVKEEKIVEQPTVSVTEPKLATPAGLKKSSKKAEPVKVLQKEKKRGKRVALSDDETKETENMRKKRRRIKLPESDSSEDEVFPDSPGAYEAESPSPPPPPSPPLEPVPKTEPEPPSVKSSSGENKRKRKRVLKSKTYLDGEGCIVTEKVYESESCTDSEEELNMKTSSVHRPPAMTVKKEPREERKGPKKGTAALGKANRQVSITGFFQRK
T3 sequence (Q9HCU8 whole entry, stated change not applied, chain 4 of 4): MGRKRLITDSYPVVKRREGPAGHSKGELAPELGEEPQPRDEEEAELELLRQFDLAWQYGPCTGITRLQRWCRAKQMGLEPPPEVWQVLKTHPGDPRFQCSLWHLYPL
The description is as above. Conditions: both partners purified.

Test [3] deals with DNA polymerase delta (Pol δ4) (Homo sapiens, UniProt P28340). In words: polymerase activity stimulation assay.
Chain of DNA polymerase delta (Pol δ4) (P28340 whole entry, stated change not applied, chain 1 of 4): as the sequence (P28340 whole entry, stated change not applied, chain 1 of 4) above
Chain of DNA polymerase delta (Pol δ4) (P49005 whole entry, stated change not applied, chain 2 of 4, further chain): as the sequence (P49005 whole entry, stated change not applied, chain 2 of 4) above
Chain of DNA polymerase delta (Pol δ4) (Q15054 2-466, stated change not applied, chain 3 of 4, further chain): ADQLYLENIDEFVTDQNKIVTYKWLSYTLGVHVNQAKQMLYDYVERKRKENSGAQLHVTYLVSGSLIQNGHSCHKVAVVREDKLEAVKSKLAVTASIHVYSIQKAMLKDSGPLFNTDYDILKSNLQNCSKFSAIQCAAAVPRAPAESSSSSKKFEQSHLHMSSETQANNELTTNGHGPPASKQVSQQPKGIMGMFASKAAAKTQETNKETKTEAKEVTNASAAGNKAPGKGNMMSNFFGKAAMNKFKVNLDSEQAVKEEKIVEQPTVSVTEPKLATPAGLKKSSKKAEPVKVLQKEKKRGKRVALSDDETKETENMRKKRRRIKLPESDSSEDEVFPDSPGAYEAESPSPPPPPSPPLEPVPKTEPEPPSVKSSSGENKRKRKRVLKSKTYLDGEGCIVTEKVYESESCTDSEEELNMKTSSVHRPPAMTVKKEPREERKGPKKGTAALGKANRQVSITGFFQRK
Chain of DNA polymerase delta (Pol δ4) (Q9HCU8 whole entry, stated change not applied, chain 4 of 4, further chain): as the sequence (Q9HCU8 whole entry, stated change not applied, chain 4 of 4) above
Another test deals with T4, His-tagged PDIP46 (human, UniProt Q9BY77 1-421).
T4 construct: PDIP46 (SKAR, POLDIP3), human; Expressed in the pTacTac vector with eight histidine residues added at its N-terminus; also called his-PDIP46; source: E. coli BL21DE3 (pLysS), purified (Ni-NTA agarose); not shown: His8, N-terminal, kept
T4 sequence (looked up): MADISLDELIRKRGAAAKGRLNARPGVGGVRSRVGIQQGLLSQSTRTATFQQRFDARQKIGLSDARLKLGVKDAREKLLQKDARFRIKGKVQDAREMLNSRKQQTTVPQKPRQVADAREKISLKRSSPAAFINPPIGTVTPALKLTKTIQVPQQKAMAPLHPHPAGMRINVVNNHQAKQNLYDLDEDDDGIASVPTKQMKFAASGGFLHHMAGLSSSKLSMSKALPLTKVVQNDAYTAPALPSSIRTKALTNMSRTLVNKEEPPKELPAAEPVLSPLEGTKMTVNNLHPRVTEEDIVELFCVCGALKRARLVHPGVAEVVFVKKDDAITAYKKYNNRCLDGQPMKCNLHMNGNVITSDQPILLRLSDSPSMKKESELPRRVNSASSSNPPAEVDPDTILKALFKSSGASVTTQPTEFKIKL
Nature of the test: pull-down; GST fusion protein incubated with the test protein in 50 mM Tris-HCl pH 7.8, 1 mM EDTA, 150 mM NaCl, 0.1% NP-40, 0.2 mM PMSF, 1 h at 4°C; captured on glutathione beads, washed 8 times; western blot of the test protein. As to conditions: both partners purified.

T2 sequence (P49005 whole entry, stated change not applied): as the sequence (P49005 whole entry, stated change not applied, chain 2 of 4) above
T1 sequence (P12004 whole entry): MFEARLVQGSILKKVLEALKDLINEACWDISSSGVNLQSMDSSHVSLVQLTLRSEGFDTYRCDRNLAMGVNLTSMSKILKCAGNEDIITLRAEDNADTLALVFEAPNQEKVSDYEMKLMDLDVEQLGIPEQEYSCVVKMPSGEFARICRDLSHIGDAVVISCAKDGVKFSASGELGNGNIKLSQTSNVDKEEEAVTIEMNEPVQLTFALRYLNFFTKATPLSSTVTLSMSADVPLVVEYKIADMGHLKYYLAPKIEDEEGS

B1: GST-PDIP46 N-terminal fragment (residues 1-141) (domain or fragment, human, UniProt Q9BY77 1-141, looked up)
chain: MADISLDELIRKRGAAAKGRLNARPGVGGVRSRVGIQQGLLSQSTRTATFQQRFDARQKIGLSDARLKLGVKDAREKLLQKDARFRIKGKVQDAREMLNSRKQQTTVPQKPRQVADAREKISLKRSSPAAFINPPIGTVTP
notes: Subcloned in pGEX-5X-3; source: E. coli BL21DE3 (pLysS), purified (glutathione beads)
Turning to B1, in the test with Human PCNA, recombinant, the binding result is reported as “binds”.

B2: GST-PDIP46 (DNA polymerase δ interacting protein 46), wild type, full length (natural protein, human, UniProt Q9BY77 1-421, looked up)
chain: T4 sequence (looked up)
notes: PDIP46 (SKAR, POLDIP3), human, full-length; Subcloned in pGEX-5X-3; The functional rows used untagged PDIP46 (his-Sumo fusion, tags removed by Sumo protease, Mono S), not this GST fusion; also called GST-p46; SKAR; source: E. coli BL21DE3 (pLysS), purified (glutathione beads)
B2: the binding result in test [1] and in test [2] was “binds” throughout.

B3: PDIP46 (protein)
chain: ADISLDELIRKRGAAAKGRLNARPGVGGVRSRVGIQQGLLSQSTRTATFQQRFDARQKIGLSDARLKLGVKDAREKLLQKDARFRIKGKVQDAREMLNSRKQQTTVPQKPRQVADAREKISLKRSSPAAFINPPIGTVTPALKLTKTIQVPQQKAMAPLHPHPAGMRINVVNNHQAKQNLYDLDEDDDGIASVPTKQMKFAASGGFLHHMAGLSSSKLSMSKALPLTKVVQNDAYTAPALPSSIRTKALTNMSRTLVNKEEPPKELPAAEPVLSPLEGTKMTVNNLHPRVTEEDIVELFCVCGALKRARLVHPGVAEVVFVKKDDAITAYKKYNNRCLDGQPMKCNLHMNGNVITSDQPILLRLSDSPSMKKESELPRRVNSASSSNPPAEVDPDTILKALFKSSGASVTTQPTEFKIKL
The term Kd denotes the free concentration of one partner at which half of the binding sites on the other are occupied at equilibrium, for simple one-to-one binding. B3 returned a Kd in test [3] of 34 nM.

B4: GST-p50 deletion construct containing residues 252-400 of p50 (domain or fragment, human, UniProt P49005 252-400, looked up)
chain: TQSRDSINKAKYLTKKTQAASVEAVKMLDEILLQLSASVPVDVMPGEFDPTNYTLPQQPLHPCMFPLATAYSTLQLVTNPYQATIDGVRFLGTSGQNVSDIFRYSSMEDHLEILEWTLRVRHISPTAPDTLGCYPFYKTDPFIFPECPH
notes: as for B1
As to B4, in the test with His-tagged PDIP46, the binding result is “binds”.
